{"source": "patent US20220305136A1", "about": "“ANTI-CTLA4 CONJUGATES” (Ascendis Pharma Oncology Division A/S, priority 2019, published 2022)", "assay": "Plasma pharmacokinetics of HHC^MET in Wistar rats", "type": "in vivo", "conditions": "n=3", "experimental": "This study was performed in order to investigate the plasma pharmacokinetics of HHC^MET in Wistar rats following subcutaneous and intramuscular administration of transient HHC^MET-linker hydrogel prodrug 32 or following subcutaneous or intravenous administration of free HHC^MET. Animals (n=3 per group) received either a single SC injection in the neck region or a single IM injection in the thigh musculature of a formulation of 32 (10 mg/kg HHC^MET equivalents) or a single SC injection in the neck region or IV injection in the tail vein of an HHC^MET formulation (10 mg/kg HHCMet). At selected time points, 200 μL blood were collected in L^1-Heparin tubes and processed to plasma by centrifugation at 3,000 g for 10 minutes at 4° C.\nHHC^MET concentrations in rat plasma were determined with an in-house developed sandwich ELISA setup. For capturing HHC^MET, a human CTLA-4 (AA Ala37-Ser160)—Fc Tag fusion protein (Supplier AcroBiosystem, Newark, Del.; USA, catalog no. CT4-H5255) was coated to the ELISA plate wells and read-out was performed via a rabbit anti-camelid VHH antibody conjugated with horseradish peroxidase (supplier Genscript, Piscataway, N.J., USA, catalog no. A01861-200).\nCalibration standards of HHC^MET in blank plasma were prepared as follows: thawed L^1-Heparin Wistar rat plasma was homogenized. The free HHC^MET formulation was spiked into blank plasma at concentrations between 96.0 ng/mL and 3.00 ng/mL with additional higher and lower anchor points. These solutions were used for the generation of a calibration curve. Calibration curves were analyzed via a 4-parameter logarithmic fit and 1/Y weighted. Calibration curves were confirmed via separately prepared quality control standards at 10, 40 and 80 ng/mL."}
{"molecule": "HHC^MET: custom made protein of SEQ ID NO:2, expressed from E. coli; captured by human CTLA-4 and detected with anti-camelid VHH antibody in ELISA (protein, nanobody, captured by human CTLA-4 and detected with anti-camelid VHH antibody in ELISA) EVQLVESGGGLVQAGGSLRLSCAASGGTFSFYGMGWFRQAPGKEQEFVADIRTSAGRTYYADSVKGRFTISRDNAKNTVYLQMNSLKPEDTAVYYCAAEMSGISGWDYWGQGTQVTVSSGGGGSGGGSEVQLVESGGGLVQAGGSLRLSCAASGGTFSFYGMGWFRQAPGKEQEFVADIRTSAGRTYYADSVKGRFTISRDNAKNTVYLQMNSLKPEDTAVYYCAAEMSGISGWDYWGQGTQVTVSS", "values": [{"measurement": "mean HHC^MET concentration", "setting": "0.25 h, 10 mg/kg HHC^MET (equivalents), subcutaneous", "result": 2540, "unit": "ng/mL"}, {"measurement": "mean HHC^MET concentration", "setting": "0.25 h, 10 mg/kg intravenous", "result": 17400, "unit": "ng/mL"}, {"measurement": "mean HHC^MET concentration", "setting": "1 h, 10 mg/kg HHC^MET (equivalents), subcutaneous", "result": 5090, "unit": "ng/mL"}, {"measurement": "mean HHC^MET concentration", "setting": "1 h, 10 mg/kg intravenous", "result": 3530, "unit": "ng/mL"}, {"measurement": "mean HHC^MET concentration", "setting": "4 h, 10 mg/kg HHC^MET (equivalents), subcutaneous", "result": 2280, "unit": "ng/mL"}, {"measurement": "mean HHC^MET concentration", "setting": "4 h, 10 mg/kg intravenous", "result": 1720, "unit": "ng/mL"}, {"measurement": "mean HHC^MET concentration", "setting": "24 h, 10 mg/kg HHC^MET (equivalents), subcutaneous, LLOQ 3.00 ng/mL", "result": 2.60, "unit": "ng/mL"}, {"measurement": "mean HHC^MET concentration", "setting": "24 h, 10 mg/kg intravenous", "result": 8.27, "unit": "ng/mL"}, {"measurement": "mean HHC^MET concentration", "setting": "32 h, 10 mg/kg HHC^MET (equivalents), subcutaneous, LLOQ 3.00 ng/mL", "result": "<LLOQ"}, {"measurement": "mean HHC^MET concentration", "setting": "32 h, 10 mg/kg intravenous, LLOQ 3.00 ng/mL", "result": "<LLOQ"}, {"measurement": "mean HHC^MET concentration", "setting": "48 h, 10 mg/kg HHC^MET (equivalents), subcutaneous, LLOQ 3.00 ng/mL", "result": "<LLOQ"}, {"measurement": "mean HHC^MET concentration", "setting": "48 h, 10 mg/kg intravenous, LLOQ 3.00 ng/mL", "result": "<LLOQ"}, {"measurement": "mean HHC^MET concentration", "setting": "72 h, 10 mg/kg HHC^MET (equivalents), subcutaneous, LLOQ 3.00 ng/mL", "result": 2.07, "unit": "ng/mL"}, {"measurement": "mean HHC^MET concentration", "setting": "72 h, 10 mg/kg intravenous, LLOQ 3.00 ng/mL", "result": 1.15, "unit": "ng/mL"}, {"measurement": "mean HHC^MET concentration", "setting": "96 h, 10 mg/kg HHC^MET (equivalents), subcutaneous, LLOQ 3.00 ng/mL", "result": "<LLOQ"}, {"measurement": "mean HHC^MET concentration", "setting": "96 h, 10 mg/kg intravenous, LLOQ 3.00 ng/mL", "result": "<LLOQ"}, {"measurement": "mean HHC^MET concentration", "setting": "168 h, 10 mg/kg HHC^MET (equivalents), subcutaneous, LLOQ 3.00 ng/mL", "result": "<LLOQ"}, {"measurement": "mean HHC^MET concentration", "setting": "168 h, 10 mg/kg intravenous, LLOQ 3.00 ng/mL", "result": "<LLOQ"}]}
